For seven molecules, EC50, GEOmean and GeoMean, Internalization results are on record in patent publication US20240101687A1.

Usually EC50 stands for the concentration giving half of the maximal effect. Higher therefore signals a need for much substance.

Residue numbers refer to the chain shown, from its start.

B1: Hu3A9-C04 (bispecific antibody, part only; not given: Hu3A9 heavy and light chains, part only)
heavy, part: GGGGSGGGGSGGGGSQSVLTQPPSASGTPGQRVTISCTGSSSNIGSNDVSWYQQLPGTAPKLLIYANSNRPSGVPDRFSGSKSGTSASLAISGLRSEDEADYYCGAWEQWLNGYVFGCGTKLTVLGGGGSGGGGSGGGGSGGGGSEVQLLESGGGLVQPGGSLRLSCAASGFTFSSYDMSWVRQAPGKLEWVSAISYDNGNTYYADSVKGRFTISRDNSKNTLYLQMNSLRAEDTAVYYCAKGVLTTLMNWFDYWGQGTLVTVSS
B2: Hu3A9-1564 (bispecific antibody, part only; not given: Hu3A9 heavy and light chains, part only)
heavy, part: GGGGSGGGGSGGGGSQSVLTQPPSASGTPGQRVTISCTGSSSNIGSNDVSWYQQLPGTAPKLLIYANSNRPSGVPDRFSGSKSGTSASLAISGLRSEDEADYYCGAWDDSLNGYVFGCGTKLTVLGGGGSGGGGSGGGGSGGGGSEVQLLESGGGLVQPGGSLRLSCAASGFTFSSYDMSWVRQAPGKCLEWVSAISYDNGNTYYADSVKGRFTISRDNSKNTLYLQMNSLRAEDTAVYYCAKGVLTTLMNWFDYWGQGTLVTVSS
B3: Hu3A9-A02 (bispecific antibody, part only; not given: Hu3A9 heavy and light chains, part only)
heavy, part: B2 heavy, part with P75S, D109T, S110T, C118G, C189G
B4: Hu3A9-B10 (bispecific antibody, part only; not given: Hu3A9 heavy and light chains, part only)
heavy, part: B2 heavy, part with P75S, A106S, D109V, C118G, C189G
B5: Hu3A9-E09 (bispecific antibody, part only; not given: Hu3A9 heavy and light chains, part only)
heavy, part: B2 heavy, part with P75S, C118G, C189G, Y198W, D199G, N200Q, N202K
B6: Hu3A9-B01 (bispecific antibody, part only; not given: Hu3A9 heavy and light chains, part only)
heavy, part: B2 heavy, part with P75S, C118G, C189G, Y198W, N200K, G201A, N202Q, T203P
B7: hu3A9 × 1564_F06 (bispecific antibody, part only; not given: hu3A9 heavy and light chains, part only)
heavy, part: B2 heavy, part with A106T, D108A, D109G

One experiment addresses human IGF1R extracellular domain, His-tagged (human) (UniProt P08069). The experiment is described as follows: ELISA on ECD of IGF1R. Background: An ELISA detects its analyte on a solid surface through an enzyme-linked reagent.
On to B1, for which the EC50 stood at 0.107 nM. In other words, the sub-nanomolar range.

In turn, B2 had an EC50 of 0.144 nM.

In turn, B3 gave an EC50 of 0.13 nM. This EC50 and that of the molecule before are within 1.5-fold of each other.

In turn, B4 showed an EC50 of 0.156 nM.

Turning to B5, the 50% effective concentration (EC50) was found to be 0.159 nM.

The molecule B6 came in with a concentration for a half-maximal effect (EC50) of 0.145 nM.

Another experiment deals with human IGF1R on cells (human) (UniProt P08069). Put plainly: FACS on MCF-7 cells (2nd Ab only: 2.92).
The molecule B1 gave a GEOmean of 3.88.

For a further experiment the target is unchanged. The experiment is described as follows: FACS on MCF-7 cells, 10 ug/mL (2nd Ab only: 2.86).
For the molecule B1, the GeoMean, Internalization at 37° C. came to 7.23.

Molecule B2 showed a GeoMean, Internalization at 37° C. of 7.72.

As to B7, the GeoMean, Internalization at 37° C. was 19.8.
